The values below are quoted from earlier work in publication PMC6832444.

For orientation: Kd means the concentration at which binding is half-saturated.

The series deals with PD-L2 (Homo sapiens) (UniProt Q9BQ51).
Sequence of UniProt Q9BQ51 (Q9BQ51 20-220): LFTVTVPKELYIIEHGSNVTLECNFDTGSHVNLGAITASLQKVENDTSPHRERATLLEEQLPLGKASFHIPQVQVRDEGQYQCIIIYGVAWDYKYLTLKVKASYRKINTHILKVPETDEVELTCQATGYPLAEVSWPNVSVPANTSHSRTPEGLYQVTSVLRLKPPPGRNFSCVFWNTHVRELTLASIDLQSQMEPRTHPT

For the substance PD-1 (from UniProt Q15116), the Kd is 0.14 µM.
